{"source": "IntAct's records for PubMed 12679424", "parents": {"B1": {"name": "Insulin receptor substrate 1 (Homo sapiens), P35568 (parent)", "chain": "MASPPESDGFSDVRKVGYLRKPKSMHKRFFVLRAASEAGGPARLEYYENEKKWRHKSSAPKRSIPLESCFNINKRADSKNKHLVALYTRDEHFAIAADSEAEQDSWYQALLQLHNRAKGHHDGAAALGAGGGGGSCSGSSGLGEAGEDLSYGDVPPGPAFKEVWQVILKPKGLGQTKNLIGIYRLCLTSKTISFVKLNSEAAAVVLQLMNIRRCGHSENFFFIEVGRSAVTGPGEFWMQVDDSVVAQNMHETILEAMRAMSDEFRPRSKSQSSSNCSNPISVPLRRHHLNNPPPSQVGLTRRSRTESITATSPASMVGGKPGSFRVRASSDGEGTMSRPASVDGSPVSPSTNRTHAHRHRGSARLHPPLNHSRSIPMPASRCSPSATSPVSLSSSSTSGHGSTSDCLFPRRSSASVSGSPSDGGFISSDEYGSSPCDFRSSFRSVTPDSLGHTPPARGEEELSNYICMGGKGPSTLTAPNGHYILSRGGNGHRCTPGTGLGTSPALAGDEAASAADLDNRFRKRTHSAGTSPTITHQKTPSQSSVASIEEYTEMMPAYPPGGGSGGRLPGHRHSAFVPTRSYPEEGLEMHPLERRGGHHRPDSSTLHTDDGYMPMSPGVAPVPSGRKGSGDYMPMSPKSVSAPQQIINPIRRHPQRVDPNGYMMMSPSGGCSPDIGGGPSSSSSSSNAVPSGTSYGKLWTNGVGGHHSHVLPHPKPPVESSGGKLLPCTGDYMNMSPVGDSNTSSPSDCYYGPEDPQHKPVLSYYSLPRSFKHTQRPGEPEEGARHQHLRLSTSSGRLLYAATADDSSSSTSSDSLGGGYCGARLEPSLPHPHHQVLQPHLPRKVDTAAQTNSRLARPTRLSLGDPKASTLPRAREQQQQQQPLLHPPEPKSPGEYVNIEFGSDQSGYLSGPVAFHSSPSVRCPSQLQPAPREEETGTEEYMKMDLGPGRRAAWQESTGVEMGRLGPAPPGAASICRPTRAVPSSRGDYMTMQMSCPRQSYVDTSPAAPVSYADMRTGIAAEEVSLPRATMAAASSSSAASASPTGPQGAAELAAHSSLLGGPQGPGGMSAFTRVNLSPNRNQSAKVIRADPQGCRRRHSSETFSSTPSATRVGNTVPFGAGAAVGGGGGSSSSSEDVKRHSSASFENVWLRPGELGGAPKEPAKLCGAAGGLENGLNYIDLDLVKDFKQCPQECTPEPQPPPPPPPHQPLGSGESSSTRRSSEDLSAYASISFQKQPEDRQ"}}, "data": [{"variants_of": "B1", "details": "with p85a_mouse Pik3r1, P26450", "values": [{"variant": "T608R", "effect of a mutation on the interaction": "decreasing interaction"}]}]}
